system: MS2 coat protein; assay: apparent KD of MS2 coat protein; higher = weaker reporter binding; details: Eterna round: R107; input ligand: arginine 13.2 mM
Procedure: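 RNA-MaP round R107: designed RNA switches with theophylline, tryptophan, arginine or FMN aptamers are transcribed on-chip within common flanks. They are titrated with SNAP-549-labelled MS2 coat protein in RNA-MaP buffer (100 mM Tris pH 7.5, 80 mM KCl, 4 mM MgCl2), without ligand or with the indicated ligand. Median apparent KD per design.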

“UACAUGAGGAUCACCCAUGUAUGAAUAGAUACCAGAUAAAAUAAGGUCCCUUGGCAGCUAGUGAAUAAAGGGUGGGUAAAAUAAU [Exclusion Theophyline A GF 1]” and “UCAUUGAGAGUCAUCCAGCGUUAAUGGGAUACCAGAGUUCUUUUACUCCCUUGGCAGCCCGGAACAUGAGGAUCACCCAUGUCUG [theeternabot_exclusion_MS2_Theo_A_39]” are within 1.5-fold of each other in “apparent KD of MS2 coat protein” value: 11.3 nM for the first, 16.7 nM for the second.

Going from “UUGACAUGAGGAUCACCCAUGUCAAAGGCACGAGGACCGGUACGGCCGCCACUCGUGGUCUAUGGCUGGUGGACUCGUGUCUCGG [Soisusdira]” to “ACUUCGCAUAGGAAAACUAUGUGAAGAAAUCGAGGACCGGUACGGCCGCCACUCGUCCUCAACAUGAGGAUCACCCAUGUAAUAA [Mat - Exclusion - Trytophan A - D5]”, the “apparent KD of MS2 coat protein” value rises from 12.2 nM to 21 nM (1.7-fold).

“AGCCUAUUACAUGAGGAUCACCCAUGUGAUACCAGUCAGGAAACUGACCCUUGGCAGCGCAUGAGGAUCACCCAUGCGCGAGGCA [Omei Theo A Exc A v4]” and “ACAUGAGGAUCACCCAUGUAUUGAGCCGAAGGAGCGGCAGGUAUGCCAGGUAGGUCGCGGUUAGAGUAGAUUGAUGUUCUUUUGU [Exclusion - Arginine A / B]” are within 1.5-fold of each other in “apparent KD of MS2 coat protein” value: 10.1 nM for the first, 12.3 nM for the second.

Compared with “AGGACGGUCGGAAGGAGCGGUACAUGAGGAUCACCCAUGUACUUAUGGGCAUCCGUAGAGUGCCAGGUAGGUCGCCGAUUGCGGG [XArg-B11]”, “GACAUGAGGAUCACCCAUGUUUGCUAUGAAGGAGCGUCGGAAAUGACAGGUAGGUCGCAUAGUAGACCUUGUAUUUCGUGUGUUU [#01 Exclusion - Arginine A]” is 1.6-fold lower in “apparent KD of MS2 coat protein” value: 17.2 nM for the first, 10.8 nM for the second.

First: UGUGCAGGAUGCGUAAAGGGUCUUGGGCAUCGAGGACCGGUACGGCCGCCACUCGGCUGUACAUGAGGAUCACCCAUGUCAGGGU [#1 Same State - Tryptophan A Attempt #20 (HarryS)]
Second: CUAAAUAUAUCGGCCGCCACUUACUCAUGAGGUAACAACAUGAGGAUCACCCAUGUUUGAGGAUCAAGGACCGGGAUAUAUUUAG [AstrosSSTryB#16]
The “apparent KD of MS2 coat protein” value of the first is 3.5-fold higher: 90.8 nM for the first, 26.1 nM for the second.

Going from “GGGAAAUGAAUAGAAUGAGAUGACACAGAAGGAGCGCGGAUUAACGCAGGUAGGUCGCUGACAACAUGAGGAUCACCCAUGUUUC [#10 Same State - Arginine A]” to “CGUUAAGAAUCGGCCGCCACUCCAUACGUGUGAAUCGCGGAUCGACAUGAGGAUCACCCAUGUCGGAGGACCGGGAUCCUCUUUC [theeternabot_sameState_MS2_Trp_B_12]”, the “apparent KD of MS2 coat protein” value rises from 13.7 nM to 28.2 nM (2.1-fold).

Compared with “ACGCCCAGGUAGGCUUAAUGGGAUAUGGAAGGAGCGCUGAUGCAAGCAGGUAGGUCGCCAACGGACAUGAGGAUCACCCAUGUAC [Same State - Arginine A (Freestyle 3)]”, “UGUAUGUGAUCUGAUACCAGUCCAACUGGUAAAGCAUGAGGAUCACCCAUGUAAAAUUGGGACCCUUGGCAGCAGAUCGCAUACU” is 9.5-fold higher in “apparent KD of MS2 coat protein” value: 15.3 nM for the first, 146 nM for the second.

Going from “AGCAUGUUCAGAAGGAGCGUGCAAGGGUACAUUCGUAGGACAUGAGGAUCACCCAUGUAAGCACAGGUAGGUCGCUGGACAUGCU [Arg B SS t5]” to “CAUAGCAAAAGUGAUACCAGAGUUCGAGGGAACAUGAGGAUCACCCAUGUGCUUGUACAACUCCCUUGGCAGCACAGAGCAAUUA [theeternabot_sameState_MS2_Theo_B_16]”, the “apparent KD of MS2 coat protein” value falls from 71.1 nM to 24.3 nM (2.9-fold).

Compared with “UGUCAUGGAAACAUGACUGGUUCUACCGGUCGAGGACCGGUACGGCCGCCACUCGAUUGGUGGCACAUGAGGAUCACCCAUGUUA [SS Tryp A #14]”, “GGGUGGUAGGCGGCCGCCACUGAUUUUUAUUUAUAGAUGACAUGAGGAUCACCCAUGUUUAUGUGCAGGACCGGGCCUGUUGUGG [aaaR]” is 2.1-fold lower in “apparent KD of MS2 coat protein” value: 26.2 nM for the first, 12.2 nM for the second.

“CUGUUUACAUGAGCCCGUCAUAUAUACGAUACCAGUUAAAGAUGAAACCCUUGGCAGCGUAGGACAUGAGGAUCACCCAUGUGCC [theeternabot_exclusion_MS2_Theo_A_17]” and “CCCAGUCAUAACAAAGGAAAUAUACUCGAAGGAGCGUCAUAGUAGGCAGGUAGGUCGCGAGACAUGAGGAUCACCCAUGUAGAGA [swwvmullin]” are within 1.5-fold of each other in “apparent KD of MS2 coat protein” value: 15.6 nM for the first, 21.5 nM for the second.

Going from “GGGCGCUAUCCCGCGAGGGAUAGCGUUCAACGAGGACCGGUACGGCCGCCACUCGAACGAGUGGUGACAUGAGGAUCACCCAUGU [Iaa]” to “GGAUAGGACACGGCCGCCACUUGCUAGGAUACUAGCAACAUUUCCUCUCAUGAGGAUCACCCAUGAAGGACCGGGUGUCCUAUCG”, the “apparent KD of MS2 coat protein” value falls from 39.9 nM to 21.3 nM (1.9-fold).

First: ACGGACAUGAGGAUCACCCAUGUGGCCGAAGGAGCGGGAAUUAACCCAGGUAGGUCGCGGAAAUUUUUUAAAUUAUUUUAAUUUU [Same State - Arginine A]
Second: AAACUUCGCAUAGGAAAACUAUGUGAAGAUCGAGGACCGGUACGGCCGCCACUCGUCCUCAACAUGAGGAUCACCCAUGUAAUAA [Mat - Exclusion - Trytophan A - D3]
The “apparent KD of MS2 coat protein” value of the first is 1.6-fold lower: 14.4 nM for the first, 22.8 nM for the second.

“AGCCCGGGAGCGGCCGCCACUGGAGGCUUAGCGCGACAUGAGGAUCACCCAUGUGUGCCCGGCGUUAGGACCGGGCUCGCGUGGU [#1 Same State - Tryptophan B Attempt #22 (HarryS)]” and “AUGUCGUUGAAUAUAGCGGCUUGGAGUGAUACCAGUAUGAUCCAAUACCCUUGGCAGCAUUACAUGAGGAUCACCCAUGUUCCAG [SSTheo A #24]” are within 1.5-fold of each other in “apparent KD of MS2 coat protein” value: 15.3 nM for the first, 17.2 nM for the second.

“GACAUUAACUGAAGGAGCGAGGUAGAACGGGAUGAGCAUACAUGAGGAUCACCCAUGUGGCCUCAGGUAGGUCGCAGAUGAGAUU [Exclusion Arginine B GF25]” and “AACAUGAGGAUCACCCAUGUCCCAUGUGAACGAGGACCGGUACGGCCGCCACUCGAAUGAGGCGGCACAUGAGGAUCACCCACAU [whbob_SS_trypto A_2s11]” are within 1.5-fold of each other in “apparent KD of MS2 coat protein” value: 83.4 nM for the first, 95.7 nM for the second.

“GCACUACAUGAGGAUCACCCAUGUGCAGAUACCAGAGGUGUAUGCCUCCCUUGGCAGCUGCGUCGCUCUGGAAACUUAUUGGUUU [Same State Theophylline A GF17]” and “UCAAAUGCGGCGGCCGCCACUCGCGGAUAACGAUAGCUUAACAUGAGGAUCACCCAUGUGUCAUGGAGGACCGGGCCCAUAACAU [ttmullin]” are within 1.5-fold of each other in “apparent KD of MS2 coat protein” value: 18.3 nM for the first, 23.4 nM for the second.

same assay, conditions: Eterna round: R107; input ligand: none

For “UUGACAUGAGGAUCACCCAUGUCAAAGGCACGAGGACCGGUACGGCCGCCACUCGUGGUCUAUGGCUGGUGGACUCGUGUCUCGG [Soisusdira]”, the “apparent KD of MS2 coat protein” value was 12 nM.
